In this data set the test system is Escherichia coli TOP10. The data set is described as follows: shrunken log2 fold change of peptide-encoding DNA abundance (4.5 h post-induction vs induction); higher = less antimicrobial activity (less host growth inhibition). The note with it: time post-induction: 4.5 h; library: site-saturation at positions 5, 18, 19, 20.
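Also: peptides expressed intracellularly from a pBAD plasmid library in pooled LB shake-flask culture, induced with 0.3% L-arabinose, DNA abundance read by NGS, three biological replicates, DESeq2 with apeglm shrinkage.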

RRIRGRPPRLPRPRPRPTYTPRP: the “shrunken log2 fold change” value came out at 0.249.

For the sequence RRIRERPPRLPRPRPRPLSCPRP, the “shrunken log2 fold change” value turned out to be 0.075.

With RRIRMRPPRLPRPRPRPMHNPRP, the “shrunken log2 fold change” value worked out at 0.0989.

Consider RRIRTRPPRLPRPRPRPRDGPRP, for which the “shrunken log2 fold change” value is 0.456.

As for RRIRQRPPRLPRPRPRPHVDPRP, the “shrunken log2 fold change” value is -0.088.

Take RRIRSRPPRLPRPRPRPTDNPRP: the “shrunken log2 fold change” value is -0.249.

Consider RRIRDRPPRLPRPRPRPRQAPRP, for which the “shrunken log2 fold change” value was 0.102.

For RRIRVRPPRLPRPRPRPELFPRP, the “shrunken log2 fold change” value was determined as 0.181.

RRIRKRPPRLPRPRPRPELGPRP: the “shrunken log2 fold change” value was 0.823.

On to RRIRARPPRLPRPRPRPNQCPRP, for which the “shrunken log2 fold change” value was -0.176.

Consider RRIRGRPPRLPRPRPRPIIMPRP, for which the “shrunken log2 fold change” value was -0.129.

As to RRIRWRPPRLPRPRPRPCTGPRP, the “shrunken log2 fold change” value is -0.0547.

Consider RRIRERPPRLPRPRPRPYGTPRP, for which the “shrunken log2 fold change” value was -0.0949.

In the case of RRIRMRPPRLPRPRPRPSETPRP, the “shrunken log2 fold change” value worked out at 0.814.

With RRIRYRPPRLPRPRPRPCKWPRP, the “shrunken log2 fold change” value was -0.063.

As to RRIRVRPPRLPRPRPRPCMVPRP, the “shrunken log2 fold change” value is -0.614.

RRIRTRPPRLPRPRPRPNDFPRP: the “shrunken log2 fold change” value is -0.205.

On to RRIRWRPPRLPRPRPRPLGMPRP, for which the “shrunken log2 fold change” value was -0.156.

With RRIRARPPRLPRPRPRPAARPRP, the “shrunken log2 fold change” value stood at 0.828.

In the case of RRIRGRPPRLPRPRPRPQRNPRP, the “shrunken log2 fold change” value is 0.473.

On to RRIRERPPRLPRPRPRPWIVPRP, for which the “shrunken log2 fold change” value is -0.00567.

As for RRIRVRPPRLPRPRPRPGYNPRP, the “shrunken log2 fold change” value was -0.193.

For RRIRPRPPRLPRPRPRPKKCPRP, the “shrunken log2 fold change” value is -0.352.

With RRIRTRPPRLPRPRPRPQGIPRP, the “shrunken log2 fold change” value is 0.0112.

Consider RRIRQRPPRLPRPRPRPKPHPRP, for which the “shrunken log2 fold change” value was 0.167.

In the case of RRIRFRPPRLPRPRPRPCEDPRP, the “shrunken log2 fold change” value is -0.13.

RRIRCRPPRLPRPRPRPEKEPRP: the “shrunken log2 fold change” value was -0.0494.

On to RRIRVRPPRLPRPRPRPADHPRP, for which the “shrunken log2 fold change” value came to 0.206.

On to RRIRIRPPRLPRPRPRPNYMPRP, for which the “shrunken log2 fold change” value was -0.177.

As to RRIRNRPPRLPRPRPRPWTTPRP, the “shrunken log2 fold change” value was -0.0122.

For the sequence RRIRQRPPRLPRPRPRPEGIPRP, the “shrunken log2 fold change” value came to 0.0201.

As to RRIRYRPPRLPRPRPRPSPWPRP, the “shrunken log2 fold change” value was -0.513.

Turning to RRIRRRPPRLPRPRPRPTEWPRP, the “shrunken log2 fold change” value was determined as 0.446.

Regarding RRIRCRPPRLPRPRPRPGLKPRP, the “shrunken log2 fold change” value was -0.113.

With RRIRWRPPRLPRPRPRPMATPRP, the “shrunken log2 fold change” value came out at 0.26.

On to RRIRYRPPRLPRPRPRPFSVPRP, for which the “shrunken log2 fold change” value was -0.313.

Take RRIRMRPPRLPRPRPRPSFEPRP: the “shrunken log2 fold change” value is 0.318.

As to RRIRPRPPRLPRPRPRPNYSPRP, the “shrunken log2 fold change” value is -0.39.

As for RRIRVRPPRLPRPRPRPIMHPRP, the “shrunken log2 fold change” value is -0.156.

As to RRIRLRPPRLPRPRPRPAMTPRP, the “shrunken log2 fold change” value is -0.113.

For the sequence RRIRDRPPRLPRPRPRPMNMPRP, the “shrunken log2 fold change” value is -0.308.

Regarding RRIRERPPRLPRPRPRPCVIPRP, the “shrunken log2 fold change” value is -0.0272.

Take RRIRGRPPRLPRPRPRPSHVPRP: the “shrunken log2 fold change” value was -0.141.

Take RRIRFRPPRLPRPRPRPLLEPRP: the “shrunken log2 fold change” value was -0.0853.

With RRIRVRPPRLPRPRPRPKKCPRP, the “shrunken log2 fold change” value was 0.0567.

As for RRIRCRPPRLPRPRPRPAYNPRP, the “shrunken log2 fold change” value is -0.619.

On to RRIRNRPPRLPRPRPRPLYLPRP, for which the “shrunken log2 fold change” value was -0.54.

For the sequence RRIRNRPPRLPRPRPRPVMNPRP, the “shrunken log2 fold change” value was -0.075.

As for RRIRCRPPRLPRPRPRPKVDPRP, the “shrunken log2 fold change” value is 0.0328.

As for RRIRTRPPRLPRPRPRPYESPRP, the “shrunken log2 fold change” value was -0.00247.

For the sequence RRIRMRPPRLPRPRPRPCMAPRP, the “shrunken log2 fold change” value was 0.59.

With RRIRYRPPRLPRPRPRPCNIPRP, the “shrunken log2 fold change” value was -0.463.

On to RRIRSRPPRLPRPRPRPITGPRP, for which the “shrunken log2 fold change” value was -0.105.

With RRIRRRPPRLPRPRPRPHVAPRP, the “shrunken log2 fold change” value was -0.138.

Turning to RRIRGRPPRLPRPRPRPQWHPRP, the “shrunken log2 fold change” value turned out to be 0.0863.

Regarding RRIRERPPRLPRPRPRPGPYPRP, the “shrunken log2 fold change” value was -0.208.

As for RRIRQRPPRLPRPRPRPMAEPRP, the “shrunken log2 fold change” value was found to be 0.0238.

On to RRIRQRPPRLPRPRPRPTVFPRP, for which the “shrunken log2 fold change” value was -0.0987.

For RRIRHRPPRLPRPRPRPATVPRP, the “shrunken log2 fold change” value amounted to 0.00308.

In the case of RRIRARPPRLPRPRPRPVPGPRP, the “shrunken log2 fold change” value was found to be 0.672.

Consider RRIRARPPRLPRPRPRPLLFPRP, for which the “shrunken log2 fold change” value worked out at 0.212.

As for RRIRHRPPRLPRPRPRPQGIPRP, the “shrunken log2 fold change” value stood at 0.0372.

Regarding RRIRQRPPRLPRPRPRPDCTPRP, the “shrunken log2 fold change” value was determined as 0.0901.

In the case of RRIRRRPPRLPRPRPRPILLPRP, the “shrunken log2 fold change” value was -0.149.

For the sequence RRIRPRPPRLPRPRPRPTSMPRP, the “shrunken log2 fold change” value is -0.0129.

With RRIRSRPPRLPRPRPRPVIEPRP, the “shrunken log2 fold change” value is -0.186.

Regarding RRIRARPPRLPRPRPRPMNEPRP, the “shrunken log2 fold change” value is 0.374.

Regarding RRIRIRPPRLPRPRPRPFITPRP, the “shrunken log2 fold change” value was -0.626.

As for RRIRPRPPRLPRPRPRPVNNPRP, the “shrunken log2 fold change” value is -0.525.

On to RRIRFRPPRLPRPRPRPVYNPRP, for which the “shrunken log2 fold change” value was -1.27.

On to RRIRMRPPRLPRPRPRPWEAPRP, for which the “shrunken log2 fold change” value is -0.033.

RRIRVRPPRLPRPRPRPMCRPRP: the “shrunken log2 fold change” value was -0.0485.

For the sequence RRIRGRPPRLPRPRPRPTTEPRP, the “shrunken log2 fold change” value was found to be 0.836.

Consider RRIRKRPPRLPRPRPRPSAAPRP, for which the “shrunken log2 fold change” value stood at 0.624.

With RRIRYRPPRLPRPRPRPIPQPRP, the “shrunken log2 fold change” value is -0.0934.

Regarding RRIRDRPPRLPRPRPRPSTFPRP, the “shrunken log2 fold change” value turned out to be 0.11.

For the sequence RRIRYRPPRLPRPRPRPDPGPRP, the “shrunken log2 fold change” value is -0.124.

As for RRIRPRPPRLPRPRPRPPQVPRP, the “shrunken log2 fold change” value amounted to 0.368.

On to RRIRKRPPRLPRPRPRPKFNPRP, for which the “shrunken log2 fold change” value is -0.0876.

For the sequence RRIRPRPPRLPRPRPRPNDEPRP, the “shrunken log2 fold change” value came to 0.0306.

Regarding RRIRDRPPRLPRPRPRPDDDPRP, the “shrunken log2 fold change” value was -0.00186.

Take RRIRNRPPRLPRPRPRPATYPRP: the “shrunken log2 fold change” value was -1.05.

For the sequence RRIRDRPPRLPRPRPRPAKTPRP, the “shrunken log2 fold change” value amounted to 0.152.

Take RRIRQRPPRLPRPRPRPAQTPRP: the “shrunken log2 fold change” value worked out at 0.13.

RRIRERPPRLPRPRPRPHTIPRP: the “shrunken log2 fold change” value is -0.217.

With RRIRARPPRLPRPRPRPESFPRP, the “shrunken log2 fold change” value was 0.807.

On to RRIRNRPPRLPRPRPRPKHSPRP, for which the “shrunken log2 fold change” value is -0.187.

Take RRIRKRPPRLPRPRPRPWHRPRP: the “shrunken log2 fold change” value was -0.0754.

RRIRFRPPRLPRPRPRPPMTPRP: the “shrunken log2 fold change” value was -0.0559.

RRIRYRPPRLPRPRPRPRNAPRP: the “shrunken log2 fold change” value is 0.00628.

Consider RRIRERPPRLPRPRPRPTNYPRP, for which the “shrunken log2 fold change” value was -0.068.

In the case of RRIRRRPPRLPRPRPRPLCQPRP, the “shrunken log2 fold change” value is -0.00285.

With RRIRGRPPRLPRPRPRPIVLPRP, the “shrunken log2 fold change” value is -0.0411.

On to RRIRNRPPRLPRPRPRPNHTPRP, for which the “shrunken log2 fold change” value is -0.773.

Turning to RRIRHRPPRLPRPRPRPALVPRP, the “shrunken log2 fold change” value was -0.0926.

As to RRIRSRPPRLPRPRPRPMSVPRP, the “shrunken log2 fold change” value is -0.0847.

For the sequence RRIRERPPRLPRPRPRPDWKPRP, the “shrunken log2 fold change” value was -0.0141.

On to RRIRMRPPRLPRPRPRPAFYPRP, for which the “shrunken log2 fold change” value was -0.0165.

On to RRIRCRPPRLPRPRPRPNCGPRP, for which the “shrunken log2 fold change” value was -0.281.

Turning to RRIRVRPPRLPRPRPRPDYHPRP, the “shrunken log2 fold change” value was -0.558.

Consider RRIRPRPPRLPRPRPRPWWIPRP, for which the “shrunken log2 fold change” value was -0.243.

As for RRIRDRPPRLPRPRPRPGSRPRP, the “shrunken log2 fold change” value was determined as 0.0273.

Turning to RRIRVRPPRLPRPRPRPAMLPRP, the “shrunken log2 fold change” value was found to be 0.0111.

For the sequence RRIRWRPPRLPRPRPRPAQMPRP, the “shrunken log2 fold change” value amounted to 0.173.

On to RRIRCRPPRLPRPRPRPEDTPRP, for which the “shrunken log2 fold change” value is -0.146.

For the sequence RRIRLRPPRLPRPRPRPHDPPRP, the “shrunken log2 fold change” value was -0.459.

For RRIRMRPPRLPRPRPRPHSWPRP, the “shrunken log2 fold change” value worked out at 0.273.

RRIRVRPPRLPRPRPRPILAPRP: the “shrunken log2 fold change” value is -0.224.

Regarding RRIRDRPPRLPRPRPRPLPKPRP, the “shrunken log2 fold change” value was 0.368.

For RRIRFRPPRLPRPRPRPTQKPRP, the “shrunken log2 fold change” value was determined as 0.94.

As to RRIRDRPPRLPRPRPRPGVAPRP, the “shrunken log2 fold change” value stood at 0.76.

For the sequence RRIRKRPPRLPRPRPRPQYRPRP, the “shrunken log2 fold change” value is -0.185.

In the case of RRIRGRPPRLPRPRPRPVAPPRP, the “shrunken log2 fold change” value is 1.18.

Consider RRIRNRPPRLPRPRPRPEDKPRP, for which the “shrunken log2 fold change” value is 0.114.

For RRIRDRPPRLPRPRPRPDITPRP, the “shrunken log2 fold change” value was determined as 0.282.

Take RRIRFRPPRLPRPRPRPGGYPRP: the “shrunken log2 fold change” value was 0.0294.

As to RRIRSRPPRLPRPRPRPDLDPRP, the “shrunken log2 fold change” value worked out at 0.152.

Turning to RRIRDRPPRLPRPRPRPQDHPRP, the “shrunken log2 fold change” value is 0.0862.

In the case of RRIRGRPPRLPRPRPRPFPQPRP, the “shrunken log2 fold change” value came out at 0.717.

As for RRIRHRPPRLPRPRPRPHRSPRP, the “shrunken log2 fold change” value was -0.0796.

For RRIRARPPRLPRPRPRPMIGPRP, the “shrunken log2 fold change” value was 0.102.

RRIRNRPPRLPRPRPRPDRFPRP: the “shrunken log2 fold change” value was -0.148.

For the sequence RRIRGRPPRLPRPRPRPWISPRP, the “shrunken log2 fold change” value is -0.191.

With RRIRERPPRLPRPRPRPLIKPRP, the “shrunken log2 fold change” value was -0.12.

Take RRIRLRPPRLPRPRPRPQPHPRP: the “shrunken log2 fold change” value stood at 0.077.

Source of the values: the supplement of paper PMC9112550, “Optimization of the antimicrobial peptide Bac7 by deep mutational scanning” (BMC Biology, 2022).
